To fix the notation:
B1: SNARE-associated protein Snapin, O95295 (parent)
chain: MAGAGSAAVSGAGTPVAGPTGRDLFAEGLLEFLRPAVQQLDSHVHAVRESQVELREQIDNLATELCRINEDQKVALDLDPYVKKLLNARRRVVLVNNILQNAQERLRRLNHSVAKETARRRAMLDSGIYPPGSPGK
B2: Amicyanin, P22364 (parent)
chain: MISATKIRSCLAACVLAAFGATGALADKATIPSESPFAAAEVADGAIVVDIAKMKYETPELHVKVGDTVTWINREAMPHNVHFVAGVLGEAALKGPMMKKEQAYSLTFTEAGTYDYHCTPHPFMRGKVVVE
B3: N154D|K396R, Q8GB52 (parent)
chain: MLKKVLSCCIAATFGIYSASSLAQSSVINSTENSQQPIAPLVLASSDDAITDRYIVVLKQPQMLMNDAAGLQQFTQQTVGLMANSFSIKTDDVFDSSIIGFVANLDALQLKQLRRDSRVEYIEQDQILSIDPVVSNEAVQSNAIWGLDRIDQRNLPLDRNYNANFDGFGVTAYVIDTGVNNNHEEFGGRSVSGYDFVDNDADSSDCNGHGTHVAGTIGGSQYGVAKNVNIVGVRVLSCSGSGTTSGVISGVDWVAQNASGPSVANMSLGGGQSTALDSAVQGAIQSGVSFMLAAGNSNADACNTSPARVPSGVTVGSTTSSDSRSSFSNWGSCVDLFAPGSQIKSAWYDGGYKTISGTSMATPHVAGVAALYLQENNGLTPLQLTGLLNSRASENKVSDTRGTTNKLLYSLADSGCEPDCGGPTPGPDPDGKLVSGVPVNGLSGSRGQKDYFYMDLQQGQQLTVVTIGGTGDADLYLRFGDKPTLNTWDCRPYRSGNSETCTVNVTQSGRYHVMLNAYSAYSGLTLQANF
B4: Phosphocarrier protein HPr, P42013 (parent)
chain: MAEKTFKVVSDSGIHARPATILVQTASKFNSEIQLEYNGKTVNLKSIMGVMSLGIPKGATIKITAEGADAAEAMAALTDTLAKEGLAE
B5: Alpha-lactalbumin, P00712 (parent)
chain: MMSFVSLLLVGILFHATQAEQLTKCEVFQKLKDLKDYGGVSLPEWVCTAFHTSGYDTQAIVQNNDSTEYGLFQINNKIWCKDDQNPHSRNICNISCDKFLDDDLTDDIVCAKKILDKVGINYWLAHKALCSEKLDQWLCEKL
B6: Phosphoglycerate kinase, P18912 (parent)
chain: MNKKTIRDVDVRGKRVFCRVDFNVPMEQGAITDDTRIRAALPTIRYLIEHGAKVILASHLGRPKGKVVEELRLDAVAKRLGELLERPVAKTNEAVGDEVKAAVDRLNEGDVLLLENVRFYPGEEKNDPELAKAFAELADLYVNDAFGAAHRAHASTEGIAHYLPAVAGFLMEKELEVLGKALSNPDRPFTAIIGGAKVKDKIGVIDNLLEKVDNLIIGGGLAYTFVKALGHDVGKSLLEEDKIELAKSFMEKAKEKGVRFYMPVDVVVADRFANDANTKVVPIDAIPADWSALDIGPKTRELYRDVIRESKLVVWNGPMGVFEMDAFAHGTKAIAEALAEALDTYSVIGGGDSAAAVEKFGLADKMDHISTGGGASLEFMEGKQLPGVVALEDK
B7: Collagen alpha-1(XVIII) chain, P39060 (parent)
chain: MAPYPCGCHILLLLFCCLAAARANLLNLNWLWFNNEDTSHAATTIPEPQGPLPVQPTADTTTHVTPRNGSTEPATAPGSPEPPSELLEDGQDTPTSAESPDAPEENIAGVGAEILNVAKGIRSFVQLWNDTVPTESLARAETLVLETPVGPLALAGPSSTPQENGTTLWPSRGIPSSPGAHTTEAGTLPAPTPSPPSLGRPWAPLTGPSVPPPSSGRASLSSLLGGAPPWGSLQDPDSQGLSPAAAAPSQQLQRPDVRLRTPLLHPLVMGSLGKHAAPSAFSSGLPGALSQVAVTTLTRDSGAWVSHVANSVGPGLANNSALLGADPEAPAGRCLPLPPSLPVCGHLGISRFWLPNHLHHESGEQVRAGARAWGGLLQTHCHPFLAWFFCLLLVPPCGSVPPPAPPPCCQFCEALQDACWSRLGGGRLPVACASLPTQEDGYCVLIGPAAERISEEVGLLQLLGDPPPQQVTQTDDPDVGLAYVFGPDANSGQVARYHFPSLFFRDFSLLFHIRPATEGPGVLFAITDSAQAMVLLGVKLSGVQDGHQDISLLYTEPGAGQTHTAASFRLPAFVGQWTHLALSVAGGFVALYVDCEEFQRMPLARSSRGLELEPGAGLFVAQAGGADPDKFQGVIAELKVRRDPQVSPMHCLDEEGDDSDGASGDSGSGLGDARELLREETGAALKPRLPAPPPVTTPPLAGGSSTEDSRSEEVEEQTTVASLGAQTLPGSDSVSTWDGSVRTPGGRVKEGGLKGQKGEPGVPGPPGRAGPPGSPCLPGPPGLPCPVSPLGPAGPALQTVPGPQGPPGPPGRDGTPGRDGEPGDPGEDGKPGDTGPQGFPGTPGDVGPKGDKGDPGVGERGPPGPQGPPGPPGPSFRHDKLTFIDMEGSGFGGDLEALRGPRGFPGPPGPPGVPGLPGEPGRFGVNSSDVPGPAGLPGVPGREGPPGFPGLPGPPGPPGREGPPGRTGQKGSLGEAGAPGHKGSKGAPGPAGARGESGLAGAPGPAGPPGPPGPPGPPGPGLPAGFDDMEGSGGPFWSTARSADGPQGPPGLPGLKGDPGVPGLPGAKGEVGADGVPGFPGLPGREGIAGPQGPKGDRGSRGEKGDPGKDGVGQPGLPGPPGPPGPVVYVSEQDGSVLSVPGPEGRPGFAGFPGPAGPKGNLGSKGERGSPGPKGEKGEPGSIFSPDGGALGPAQKGAKGEPGFRGPPGPYGRPGYKGEIGFPGRPGRPGMNGLKGEKGEPGDASLGFGMRGMPGPPGPPGPPGPPGTPVYDSNVFAESSRPGPPGLPGNQGPPGPKGAKGEVGPPGPPGQFPFDFLQLEAEMKGEKGDRGDAGQKGERGEPGGGGFFGSSLPGPPGPPGPPGPRGYPGIPGPKGESIRGQPGPPGPQGPPGIGYEGRQGPPGPPGPPGPPSFPGPHRQTISVPGPPGPPGPPGPPGTMGASSGVRLWATRQAMLGQVHEVPEGWLIFVAEQEELYVRVQNGFRKVQLEARTPLPRGTDNEVAALQPPVVQLHDSNPYPRREHPHPTARPWRADDILASPPRLPEPQPYPGAPHHSSYVHLRPARPTSPPAHSHRDFQPVLHLVALNSPLSGGMRGIRGADFQCFQQARAVGLAGTFRAFLSSRLQDLYSIVRRADRAAVPIVNLKDELLFPSWEALFSGSEGPLKPGARIFSFDGKDVLRHPTWPQKSVWHGSDPNGRRLTESYCETWRTEAPSATGQASSLLGGRLLGQSAASCHHAYIVLCIENSFMTASK
B8: Adenylate kinase, P16304 (parent)
chain: MNLVLMGLPGAGKGTQGERIVEDYGIPHISTGDMFRAAMKEETPLGLEAKSYIDKGELVPDEVTIGIVKERLGKDDCERGFLLDGFPRTVAQAEALEEILEEYGKPIDYVINIEVDKDVLMERLTGRRICSVCGTTYHLVFNPPKTPGICDKDGGELYQRADDNEETVSKRLEVNMKQTQPLLDFYSEKGYLANVNGQQDIQDVYADVKDLLGGLKK
B9: Holocytochrome-c synthase, P06182 (parent)
chain: MGWFWADQKTTGKDIGGAAVSSMSGCPVMHESSSSSPPSSECPVMQGDNDRINPLNNMPELAASKQPGQKMDLPVDRTISSIPKSPDSNEFWEYPSPQQMYNAMVRKGKIGGSGEVAEDAVESMVQVHNFLNEGCWQEVLEWEKPHTDESHVQPKLLKFMGKPGVLSPRARWMHLCGLLFPSHFSQELPFDRHDWIVLRGERKAEQQPPTFKEVRYVLDFYGGPDDENGMPTFHVDVRPALDSLDNAKDRMTRFLDRMISGPSSSSSAP
B10: Ribonuclease, P00648 (parent)
chain: MMKMEGIALKKRLSWISVCLLVLVSAAGMLFSTAAKTETSSHKAHTEAQVINTFDGVADYLQTYHKLPDNYITKSEAQALGWVASKGNLADVAPGKSIGGDIFSNREGKLPGKSGRTWREADINYTSGFRNSDRILYSSDWLIYKTTDHYQTFTKIR

Values joined by “and” are separate entries in the source; they are usually repeats but may differ in a detail not shown here. Identical values can stand only once.

Variants of B1 are the subject of the first data set. The settings on record: Homo sapiens; pH 7; Thermal; absorbance; Phosphate buffer; transition: 2; reversible: yes; whole UniProt chain shown.
As a reminder, the Tm is the temperature at the midpoint of the melting transition. Regarding C66S, the Tm amounted to 72.4 °C and the “change of melting temperature, mutant - wild type (higher = more stable)” value (from here on “change of melting temperature, mutant”) turned out to be 1.4 °C.

The data set is the same for the next values; noted with them: Homo sapiens; pH 7.4; Thermal; CD; Tris 50 mM; whole UniProt chain shown.
As to C66S, the Tm came out at 60.1 °C and the “change of melting temperature, mutant” value came out at 2.2 °C.

The variants in another data set derive from B2. The settings on record: Paracoccus denitrificans; pH 7.5; Thermal; absorbance; Potassium Phosphate Buffer 10 mM; structure 2OV0; whole UniProt chain shown.
With W71Y, the Tm came to 53.9 °C.

In the next data set the parent is B3. The settings on record: Vibrio sp. PA-44; pH 8.6; Thermal; CD; Glycine 25 mM; NaCl and CaCl2 100 mM and 15 mM; structure 1SH7; whole UniProt chain shown.
In the case of N154D K396R, the Tm was 65.1 °C and the “change of melting temperature, mutant” value was 1.5 °C.
In the case of N154D, the Tm is 66.3 °C and 68.2 °C; the “change of melting temperature, mutant” value is 2.7 °C and 3.1 °C.

Variants of B4 are the subject of another data set. The settings on record: Geobacillus stearothermophilus; pH 7; 25 °C; Urea; CD; sodium phosphate 10 mM; reversible: yes; structure 1Y4Y; whole UniProt chain shown.
For F29W, the “ddG of mutation (higher = less stable)” value was determined as 0.86 kcal/mol, the denaturant m value worked out at 1.06 kcal/mol/M and the unfolding free energy is 7.37 kcal/mol.

The same data set, now with this note: Geobacillus stearothermophilus; pH 7; Thermal; CD; sodium phosphate 10 mM; NaCl 750 mM; reversible: yes; structure 1Y4Y; whole UniProt chain shown.
As to F29W, the Tm came to 85.3 °C.

The data set is the same for the next values; noted with them: Geobacillus stearothermophilus; pH 7; Thermal; CD; sodium phosphate 10 mM; reversible: yes; structure 1Y4Y; whole UniProt chain shown.
Consider F29W, for which the Tm stood at 83.7 °C and the “change of melting temperature, mutant” value is -4.4 °C.

In another data set the parent is B5. The settings on record: Capra hircus; pH 7; 25 °C; Thermal; CD; sodium cacodylate 50 mM; CaCl2 1 mM; structure 1HFY; whole UniProt chain shown.
With T48V, the “ddG of mutation (higher = less stable)” value was -1.86 kcal/mol.
For the variant T48I, the “ddG of mutation (higher = less stable)” value was -1.37 kcal/mol.

The variants in the next data set derive from B6. The settings on record: Geobacillus stearothermophilus; pH 7.2; 25 °C; GdnHCl; Fluorescence; TEA 50 mM; reversible: no; structure 1PHP; whole UniProt chain shown.
As for I217A L221A, the unfolding free energy is 5.7 kcal/mol and 9.6 kcal/mol.

Variants of B7 are the subject of the next data set. The settings on record: Homo sapiens; pH 7.4; 20 °C; GdnHCl; Fluorescence; Tris-HCl 5 mM; structure 1BNL; whole UniProt chain shown.
Consider D1647A, for which the denaturant m value was 2.86 kcal/mol/M and 1.57 kcal/mol/M; the “denaturant midpoint (higher = more stable)” value came out at 1.79 M; the unfolding free energy was 5.12 kcal/mol and 2.82 kcal/mol.

Variants of B8 are the subject of a further data set. The settings on record: Bacillus subtilis (strain 168); pH 7.4; Thermal; DSC; Hepes 50 mM; reversible: No; structure 2EU8; whole UniProt chain shown.
Turning to L3I G17A D23K K69R G73S D75S Y103M K105R E114Q D118E V119E S169T Q180A D184A S187D E188S G190E Y191V A193V Y205F D210V L211I K217Q, the “change of melting temperature, mutant” value stood at 11.6 °C.
On the same count and under the same terms, for D23K Y103M E114Q S169T Q180A S187D A193V V208L D210V K217Q the value was 5 °C; for L3I G17A D23K K69R G73S D75S I99S Y103M K105R E114Q D118E V119E M121I E122A S169T Q180A D184A S187D E188S G190E Y191V A193V Y205F D210V L211I K217Q, 12.5 °C.

Another data set covers variants of B9. The settings on record: Saccharomyces cerevisiae (strain ATCC 204508 / S288c); pH 6; Thermal; Absorbance; Sodium phosphate 100 mM; reversible: yes; whole UniProt chain shown.
On to N57I, for which the Tm came out at 63.7 °C; the “change of melting temperature, mutant” value is 17.2 °C; the “heat capacity change of unfolding” value was found to be 2 kcal/mol/K; the “unfolding enthalpy (van 't Hoff)” value is 109 kcal/mol.

Variants of B10 are the subject of the next data set. Conditions: Bacillus amyloliquefaciens; pH 2.7; Thermal; DSC; glycine-HCl 20 mM; reversible: yes; structure 1BNI; whole UniProt chain shown.
For the variant S132C H149C, the Tm stood at 47.4 °C.

The data set is the same for the next values; noted with them: Bacillus amyloliquefaciens; pH 6.3; 25 °C; Thermal; Fluorescence; MES 50 mM; structure 1BNI; whole UniProt chain shown.
Take D101A: the “ddG of mutation (higher = less stable)” value was found to be 3.3 kcal/mol and the unfolding free energy amounted to 6.9 kcal/mol.
For D101N, in that order: 2.6 kcal/mol and 7.6 kcal/mol.

The data set is the same for the next values; noted with them: Bacillus amyloliquefaciens; pH 6.3; 25 °C; Urea; Fluorescence; MES 50 mM; reversible: yes; structure 1BNI; whole UniProt chain shown.
For the variant Y125F, the “ddG of mutation (higher = less stable)” value was 1.5 kcal/mol.
